The results in this text go back to paper PMC4937376, “CpsR, a GntR family regulator, transcriptionally regulates capsular polysaccharide biosynthesis and governs bacterial virulence in Streptococcus pneumoniae”.

The target in this data set is 6His-CpsR (Streptococcus pneumoniae D39, UniProt A0A0H2ZMA3 1-247). The experiment in a line: EMSA; 0.25 uM probe; EMSA: 20 ul, LightShift kit buffer (composition not given) with 50 ng/ul poly(dI-dC), 20 min room temperature, 6% gel; footprinting: 400 ng probe in 40 ul, 30 min at 25 C. Conditions: protein: recombinant; tags: 6His; chain copies: 2; label: 5'-biotin (top strand); blunt. (In general: In EMSA bound probe runs differently from free probe, usually more slowly.)

B1: WT 33-mer (dsDNA)
DNA 1: TGTCATGTTCTTATTTCATTTTACTATATTTTT
DNA 2: AAAAATATAGTAAAATGAAATAAGAACATGACA
As to B1, the binding result is listed as “binds”.
